Test results reported in patent US20150125397A1, “DUAL SPECIFIC BINDING PROTEINS DIRECTED AGAINST IMMUNE CELL RECEPTORS AND AUTOANTIGENS” (ABBVIE INC., priority 2013, published 2015).
One block for each molecule: values may come before it.

Columns and labels:
mIgM = biological target: T1, mIgM (Mus musculus, UniProt P01872); test: IgM binding ELISA (mouse IgM); conditions: for potency in IgM binding assay: among DVD3751-DVD3760; for IgM Binding EC50: mIgM-coated ELISA, half-log dilution 10 μg/ml-0.01 μg/ml
T1 sequence (P01872 1-454): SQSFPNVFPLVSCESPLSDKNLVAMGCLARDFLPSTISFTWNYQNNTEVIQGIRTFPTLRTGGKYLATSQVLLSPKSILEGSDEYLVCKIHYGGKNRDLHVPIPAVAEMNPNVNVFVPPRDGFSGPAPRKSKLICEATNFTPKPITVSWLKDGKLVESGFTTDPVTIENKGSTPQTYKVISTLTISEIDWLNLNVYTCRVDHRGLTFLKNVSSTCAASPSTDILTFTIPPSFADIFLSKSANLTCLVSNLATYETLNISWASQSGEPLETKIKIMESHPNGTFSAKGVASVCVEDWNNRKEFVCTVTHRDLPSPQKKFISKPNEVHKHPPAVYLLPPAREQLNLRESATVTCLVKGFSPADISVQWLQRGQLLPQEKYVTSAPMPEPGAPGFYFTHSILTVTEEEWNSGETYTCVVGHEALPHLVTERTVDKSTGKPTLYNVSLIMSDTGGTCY
Protocol: Reactivity of the DVD-Ig proteins with mIgM was determined by enzyme-linked immunosorbent assay (ELISA). Briefly, each well of an Ultra Cruz 96 well microtiter plate (Santa Cruz Biotechnology, Dallas, Tex.) was coated with mIgM at a concentration of 1 μg/ml in 100 μl of PBS. The plate was covered in plastic wrap and incubated overnight at 4° C. Each well of the plate was then washed 3× with 300 μl of PBST. After the final wash, 200 μl of blocking buffer (1% BSA in PBS) was added to each well and the plate incubated at RT for 2 hours. The plate was then washed as above. Rows B-H of the microtiter plate were filled with 100 μl of dilution buffer (1% BSA in PBST). The DVD-Ig proteins were then diluted to […] in dilution buffer and 147 μl of a DVD-Ig protein was added in duplicate to row A of a 96 well plate. For a ½ log dilution, 47 μl was transferred from row A to row B. The pipette tips were replaced with clean tips and 47 μl from row B was transferred to row C. The serial transfers were repeated as above until row G. To assess the binding of the secondary detection reagent to the coated IgM, the final transfer 47 μl was only transferred from G1-G10 to H1-H10 and wells H11 and H12 were left containing 100 μl of dilution buffer. To maintain a 100 μl assay volume, 47 μl was removed from wells H1-H10 and G11-G12 and discarded. After the serial dilution was completed, the plate was incubated for 1-2 hours at RT. The plate was washed as above and then 100 μl of horseradish peroxidase conjugated goat α-hIgG Fc specific, diluted 1:3,000 in dilution buffer, was added to each well. The plate was incubated for 1 hour at RT and then washed 4× as above. The plate was developed by adding 100 μl of 3′,3′,5′,5′-Tetramethylbenzidine (TMB) substrate solution to each well and incubating the plate in the dark for 10-15 minutes. The enzymatic reaction was stopped by adding 100 μl of 1M H2SO4 to each well. The plate was read at 450 nm on an EnVision 2102 multilabel reader (Perkin Elmer, Waltham, Mass.).
DVD-Ig proteins DVD3751-DVD3760 were characterized by IgM binding assay at half-log dilution starting at 10 μg/ml-0.01 μg/ml according to the method of Example 2.5.
IgM binding ELISA: Titrations of the DVD-Ig™ proteins (10 μg/ml to 0.01 μg/ml) were added to ELISA plates coated with murine IgM. Bound antibody was detected with biotinylated anti-human IgG and streptavidin-HRP. EC50 were calculated from the titration curve using Prism6.

AM14 WT B cells = test: [3H]thymidine incorporation, BCR/TLR9 stimulation of AM14 WT B cells; assay type: cell-based, mouse; design: key to 3H incorporation AM14 WT, relative result: (X)-(XXX) indicates relative results; (XX): (X)-(XXX) indicates relative results; (X)-(XXX) indicates relative results; level of 3H incorporation / 3H incorporation AM14 WT: dose or concentration left out as unconfirmed; conditions: for 3H incorporation AM14 WT: 24 hours, then 6 hours pulse
Source text: (§1) The AM14 B cell receptor (BCR) transgenic mouse has been described previously (Sweet et al. (2010) Autoimmun 43(8): 607-18). Briefly, AM14 is a BCR comprising the AM14 heavy chain and the Vk8 light chain that recognizes murine IgG2a (mIgG2a) of the “a” allotype. Between 95-98% of B cells in a mouse positive for the AM14 heavy chain and Vk8 light chain express the AM14 BCR. To generate AM14 B cells that are deficient in TLR9, TLR7 or FcγRIIB, the AM14 and Vk8 genes were bred to the appropriate knock out mice.
(§2) Primary murine B cells were purified by positive selection using BD Imag™ CD45R/B220 magnetic particles (BD Biosciences, San Jose, Calif.). Briefly, B cells were cultured in RPMI containing, pencillin-streptomycin, β-mercaptoethanol, and 5% heat-inactivated fetal calf serum (FCS) in 96 well flat bottom plates at a density of 4×10^5 cells/well. For stimulation through the BCR and TLR9, B cells were treated with a titration of 0.3 μg/ml-0.03 μg/ml of PA4 or 5 μg/ml to 0.15 μg/ml of a DVD-Ig protein (DVD3751, DVD3752, DVD3754, DVD3755, DVD3759 and DVD3760), unless otherwise noted. Cells were also treated with 1 μg/ml 1826, an experimental ligand for TLR9, as a control. After 24 hours, the cells were pulsed for 6 hours with [3H]thymidine (Perkin Elmer, Waltham Mass.). Incorporation of [3H]thymidine was quantified via a liquid scintillation beta counter (Trilux 1450 MicroBeta, PerkinElmer) according to standard methods.
(§3) DVD-Ig proteins DVD3751-DVD3760 were characterized by ^3H incorporation at […] according to the method of Example 2.6.

DNA = test: Antinuclear antibody (ANA) test; assay type: binding; conditions: ANA staining at 10 μg/ml
Protocol: The cloned BWR4 and PA4 antibodies as well as the DVD-Ig proteins were tested for ANA reactivity using the ANA test kit. Briefly, the DVD-Ig proteins and antibodies were diluted to […] in blocking buffer (1% BSA in PBS). The DVD-Ig proteins and antibodies were added to separate wells of an ANA slide at 50 μl/well and incubated in a moist chamber for 2 hours at room temperature (RT). The wells were then washed 3× with PBS. To detect bound antibodies, Alexa Fluor 488 conjugated goat α-human IgG (α-hIgG) was then added at a dilution of 1:1,000 and the slide incubated in a moist chamber for 1 hour. Unbound detecting antibody was removed by immersing the slide in a jar containing PBS and incubating for 10 minutes at RT with gentle rocking. The prior step was repeated 2× and 10 μl of Prolong® Gold Antifade was added to each well and a 24 mm×60 mm #1 cover glass seated on top. The covered slide was incubated overnight at RT and then sealed by applying clear nail polish to the edges. Binding of the DVD-Ig proteins and antibodies to the slides was assessed by fluorescence microscopy.
DVD-Ig proteins DVD3751-DVD3760 were characterized by antinuclear antibody (ANA) staining at 10 μg/ml according to the method of Example 2.4.
ANA: HEp-2 human tissue culture substrate slides were incubated with 5 μg/ml of the anti-DNA-IgG2a or the DVD-Ig™ binding protein for 2 hours at RT. The slides were washed and bound antibodies were detected with Alexa-488 goat anti-human antibody or DyLight 488 goat anti-mouse antibody.

AM14 TLR9−/− B cells = test: [3H]thymidine incorporation, BCR/TLR9 stimulation of AM14 TLR9-/- B cells; assay type: cell-based, mouse; conditions: at 5 mg/ml; 24 hours, then 6 hours pulse
Source text: as §1, §2, §3

potency in IgM binding assay (mIgM): highest potency
IgM Binding EC50 (mIgM): 0.0331 µg/mL
B1: DVD3756: DVD-Ig: VD1 mIgM (B7.6), GS linker, VD2 DNA(PA4); heavy SEQ ID NO 58, light 59 (antibody)
heavy: QVQLKESGPGLVKPSLTLSLTCTVSGFSLNGYGVIWVRQPPGKGLEWMGVIWGNGNTNYNSTLKSRLSISRDTSKSQVFLKMNNLQTEDTAMYFCARSENYYSSPGYFAYWGQGTLVTVSSGGGGSGGGGSEVQLVESGGGLVKPGGSLKLSCVASGFTFSTYAMSWVRQTPTKRLEWVATISRGGVSTYYPDTVKGRFTISRDNAKNTLYLQMSSLRSEDTAMYYCARPPTIVTTWFAYWGQGTLVTVSS
light: NTVMTQSPTSMFISVGDRVTMNCKASQNVGSDVDWYQQKTGQSPKLLISGTSNRYTGVPDRFTGSGSGTDFTLTISNMQAEDLAVYYCLQYNYNPTFGAGTKLELKRGGSGGGGSGDVVMTQTPLSLPVSLGDQASISCRSSQSLVHSNGNTYLHWYLQKPGQSPKLLIYKVSNRFSGVPDRFSGSGSGTDFTLKISRVEAEDLGAYFCSQSTHVPYTFGGPTRLEIKR
3H incorporation AM14 WT, relative result (AM14 WT B cells): (X)
3H incorporation AM14 WT (AM14 WT B cells): (7793)
ANA score (DNA): 1
3H incorporation AM14 TLR9−/− (AM14 TLR9−/− B cells): (459)

potency in IgM binding assay (mIgM): highest potency
IgM Binding EC50 (mIgM): 0.04178 µg/mL
B2: DVD3757: DVD-Ig: VD1 mIgM (B7.6), SS linker, VD2 DNA(PA4); heavy SEQ ID NO 60, light 61 (antibody)
heavy: QVQLKESGPGLVKPSLTLSLTCTVSGFSLNGYGVIWVRQPPGKGLEWMGVIWGNGNTNYNSTLKSRLSISRDTSKSQVFLKMNNLQTEDTAMYFCARSENYYSSPGYFAYWGQGTLVTVSSASTKGPEVQLVESGGGLVKPGGSLKLSCVASGFTFSTYAMSWVRQTPTKRLEWVATISRGGVSTYYPDTVKGRFTISRDNAKNTLYLQMSSLRSEDTAMYYCARPPTIVTTWFAYWGQGTLVTVSS
light: NTVMTQSPTSMFISVGDRVTMNCKASQNVGSDVDWYQQKTGQSPKLLISGTSNRYTGVPDRFTGSGSGTDFTLTISNMQAEDLAVYYCLQYNYNPTFGAGTKLELKRTVAAPDVVMTQTPLSLPVSLGDQASISCRSSQSLVHSNGNTYLHWYLQKPGQSPKLLIYKVSNRFSGVPDRFSGSGSGTDFTLKISRVEAEDLGAYFCSQSTHVPYTFGGPTRLEIKR
3H incorporation AM14 WT, relative result (AM14 WT B cells): (X)
3H incorporation AM14 WT (AM14 WT B cells): (4063)
ANA score (DNA): 1
3H incorporation AM14 TLR9−/− (AM14 TLR9−/− B cells): (382)

potency in IgM binding assay (mIgM): highest potency
IgM Binding EC50 (mIgM): 0.03529 µg/mL
B3: DVD3760: DVD-Ig: VD1 mIgM (B7.6), LS linker, VD2 DNA(PA4); heavy SEQ ID NO 66, light 67 (antibody)
heavy: QVQLKESGPGLVKPSLTLSLTCTVSGFSLNGYGVIWVRQPPGKGLEWMGVIWGNGNTNYNSTLKSRLSISRDTSKSQVFLKMNNLQTEDTAMYFCARSENYYSSPGYFAYWGQGTLVTVSSASTKGPSVFPLAPEVQLVESGGGLVKPGGSLKLSCVASGFTFSTYAMSWVRQTPTKRLEWVATISRGGVSTYYPDTVKGRFTISRDNAKNTLYLQMSSLRSEDTAMYYCARPPTIVTTWFAYWGQGTLVTVSS
light: B2 light
3H incorporation AM14 WT, relative result (AM14 WT B cells): (X)
3H incorporation AM14 WT (AM14 WT B cells): (4335)
ANA score (DNA): 1
3H incorporation AM14 TLR9−/− (AM14 TLR9−/− B cells): (302)
